The values that follow come from paper PMC8967028.

The experiment concerns the target SARS-CoV-1 spike (S) receptor binding domain (SARS-CoV-1). In words: SPR. On the technique in general: In SPR one partner is held on a chip, and binding of the other changes the refractive index at the surface.
What is called koff is the first-order rate constant of dissociation. Turning to VHH-72-Fc S56M (Fc fusion), the dissociation rate constant (koff) worked out at 0.00025 s⁻¹.
Consider VHH-72-Fc L97W,T99V (Fc fusion), for which the koff was determined as 8e-05 s⁻¹.
For VHH-72-Fc S56M,L97W,T99V (Fc fusion), the koff came out at 0.00013 s⁻¹.
As for VHH-72-Fc S56M,L97W (Fc fusion), the figure is 0.0002 s⁻¹; as for VHH-72-Fc L97W (Fc fusion), 0.00018 s⁻¹; as for VHH-72-Fc S56M,T99V (Fc fusion), 0.00016 s⁻¹.
As for VHH-72-Fc T99V (Fc fusion), the figure is 0.00012 s⁻¹.
